Starred links: 1 amine or outer side, 2 acyl side, 3 side chain; linkers in the order of their positions; H or OH if unused. Non-standard residues stand in square brackets, D forms with d. *: point of attachment. Imidazole4carbonyl = O=C(c1cnc[nH]1)*; 4Pal = N[C@@H](Cc1ccncc1)C(=O)O; Cha = N[C@@H](CC1CCCCC1)C(=O)O; Cit = NC(=O)NCCC[C@H](N)C(=O)O; Isonicotinoyl = O=C(c1ccncc1)*; Suc = O=C(CCC(=O)[*:2])[*:1]; Isobutyryl = CC(C)C(=O)*; Nle = CCCC[C@H](N)C(=O)O; Aib = CC(C)(N)C(=O)O; βAla = NCCC(=O)O
Assays:
[1] = biological target: human Y2 receptor (human) (UniProt P49146); assay: cell-based or functional assay
Chain of human Y2 receptor (human) (P49146 whole entry): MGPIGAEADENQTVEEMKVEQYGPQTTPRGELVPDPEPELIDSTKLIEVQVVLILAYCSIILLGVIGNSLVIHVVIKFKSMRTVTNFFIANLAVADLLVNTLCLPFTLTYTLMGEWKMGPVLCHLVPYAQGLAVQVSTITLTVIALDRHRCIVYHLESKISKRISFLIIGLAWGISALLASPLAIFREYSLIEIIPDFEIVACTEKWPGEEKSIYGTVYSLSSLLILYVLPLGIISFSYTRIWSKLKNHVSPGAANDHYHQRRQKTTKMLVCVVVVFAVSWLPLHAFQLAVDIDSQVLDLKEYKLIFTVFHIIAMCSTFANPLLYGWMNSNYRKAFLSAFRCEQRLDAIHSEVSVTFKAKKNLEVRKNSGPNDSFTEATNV

[2] = biological target: human Y2 receptor (human) (UniProt P49146); assay: RBA: displacement of [125I]-PYY from hY2R/CHO membranes

Binder	GBA EC50 Ratio ([35S]GTPγS binding) (EC50 compound/EC50 PYY(3-36)) [1]	IC50 Ratio (IC50 compound/IC50 PYY(3-36)) [2]
Ac-AE[dP]R[4Pal][Cha][Aib]NK[Aib]TRQR[Cha]-NH2 (SMILES CC(=O)N[C@@H](C)C(=O)N[C@@H](CCC(=O)O)C(=O)N1CCC[C@@H]1C(=O)N[C@@H](CCCNC(=N)N)C(=O)N[C@@H](Cc1ccncc1)C(=O)N[C@@H](CC1CCCCC1)C(=O)NC(C)(C)C(=O)N[C@@H](CC(N)=O)C(=O)N[C@@H](CCCCN)C(=O)NC(C)(C)C(=O)N[C@H](C(=O)N[C@@H](CCCNC(=N)N)C(=O)N[C@@H](CCC(N)=O)C(=O)N[C@@H](CCCNC(=N)N)C(=O)N[C@@H](CC1CCCCC1)C(N)=O)[C@@H](C)O) [Ac-[Glu23, D-Pro24, Pya(4)26, Cha27,36, Aib28,31, Lys30]-PYY(22-36)]	3.5	5.3
Ac-AS[dP]R[4Pal][Cha][Aib]NK[Aib]TRQR[Cha]-NH2 (SMILES CC(=O)N[C@@H](C)C(=O)N[C@@H](CO)C(=O)N1CCC[C@@H]1C(=O)N[C@@H](CCCNC(=N)N)C(=O)N[C@@H](Cc1ccncc1)C(=O)N[C@@H](CC1CCCCC1)C(=O)NC(C)(C)C(=O)N[C@@H](CC(N)=O)C(=O)N[C@@H](CCCCN)C(=O)NC(C)(C)C(=O)N[C@H](C(=O)N[C@@H](CCCNC(=N)N)C(=O)N[C@@H](CCC(N)=O)C(=O)N[C@@H](CCCNC(=N)N)C(=O)N[C@@H](CC1CCCCC1)C(N)=O)[C@@H](C)O) [Ac-[D-Pro24, Pya(4)26, Cha27,36, Aib28,31, Lys30]-PYY(22-36)]	1.7	2.3
Ac-Q[dP]R[4Pal][Cha][Aib]NK[Aib]TRQR[Cha]-NH2 (SMILES CC(=O)N[C@@H](CCC(N)=O)C(=O)N1CCC[C@@H]1C(=O)N[C@@H](CCCNC(=N)N)C(=O)N[C@@H](Cc1ccncc1)C(=O)N[C@@H](CC1CCCCC1)C(=O)NC(C)(C)C(=O)N[C@@H](CC(N)=O)C(=O)N[C@@H](CCCCN)C(=O)NC(C)(C)C(=O)N[C@H](C(=O)N[C@@H](CCCNC(=N)N)C(=O)N[C@@H](CCC(N)=O)C(=O)N[C@@H](CCCNC(=N)N)C(=O)N[C@@H](CC1CCCCC1)C(N)=O)[C@@H](C)O) [Ac-[Gln23, D-Pro24, Pya(4)26, Cha27,36, Aib28,31, Lys30]-PYY(23-36)]	0.9	1.3
Suc-Q[dP]R[4Pal][Cha][Aib]NK[Aib]TRQR[Cha]-NH2 (SMILES C[C@@H](O)[C@H](NC(=O)C(C)(C)NC(=O)[C@H](CCCCN)NC(=O)[C@H](CC(N)=O)NC(=O)C(C)(C)NC(=O)[C@H](CC1CCCCC1)NC(=O)[C@H](Cc1ccncc1)NC(=O)[C@H](CCCNC(=N)N)NC(=O)[C@H]1CCCN1C(=O)[C@H](CCC(N)=O)NC(=O)CCC(=O)O)C(=O)N[C@@H](CCCNC(=N)N)C(=O)N[C@@H](CCC(N)=O)C(=O)N[C@@H](CCCNC(=N)N)C(=O)N[C@@H](CC1CCCCC1)C(N)=O) [3-Carboxypropionyl-[Gln23, D-Pro24, Pya(4)26, Cha27,36, Aib28,31, Lys30]-PYY(23-36)]	1.9	2
Isonicotinoyl-E[dP]R[4Pal][Cha][Aib]NK[Aib]TRQR[Cha]-NH2 (SMILES C[C@@H](O)[C@H](NC(=O)C(C)(C)NC(=O)[C@H](CCCCN)NC(=O)[C@H](CC(N)=O)NC(=O)C(C)(C)NC(=O)[C@H](CC1CCCCC1)NC(=O)[C@H](Cc1ccncc1)NC(=O)[C@H](CCCNC(=N)N)NC(=O)[C@H]1CCCN1C(=O)[C@H](CCC(=O)O)NC(=O)c1ccncc1)C(=O)N[C@@H](CCCNC(=N)N)C(=O)N[C@@H](CCC(N)=O)C(=O)N[C@@H](CCCNC(=N)N)C(=O)N[C@@H](CC1CCCCC1)C(N)=O) [4-Pyridinecarbonyl-[Glu23, D-Pro24, Pya(4)26, Cha27,36, Aib28,31, Lys30]-PYY(23-36)]	1.8	1.9
Ac-S[dP][Cit]H[Cha][Aib]NK[Aib]TRQR[Cha]-NH2 (SMILES CC(=O)N[C@@H](CO)C(=O)N1CCC[C@@H]1C(=O)N[C@@H](CCCNC(N)=O)C(=O)N[C@@H](Cc1c[nH]cn1)C(=O)N[C@@H](CC1CCCCC1)C(=O)NC(C)(C)C(=O)N[C@@H](CC(N)=O)C(=O)N[C@@H](CCCCN)C(=O)NC(C)(C)C(=O)N[C@H](C(=O)N[C@@H](CCCNC(=N)N)C(=O)N[C@@H](CCC(N)=O)C(=O)N[C@@H](CCCNC(=N)N)C(=O)N[C@@H](CC1CCCCC1)C(N)=O)[C@@H](C)O) [Ac-[D-Pro24, Cit25, Cha27,36, Aib28,31, Lys30]-PYY(23-36)]	4.6	6.2
Ac-E[dP][Nle][4Pal][Cha][Aib]NK[Aib]TRQR[Cha]-NH2 (SMILES CCCC[C@H](NC(=O)[C@H]1CCCN1C(=O)[C@H](CCC(=O)O)NC(C)=O)C(=O)N[C@@H](Cc1ccncc1)C(=O)N[C@@H](CC1CCCCC1)C(=O)NC(C)(C)C(=O)N[C@@H](CC(N)=O)C(=O)N[C@@H](CCCCN)C(=O)NC(C)(C)C(=O)N[C@H](C(=O)N[C@@H](CCCNC(=N)N)C(=O)N[C@@H](CCC(N)=O)C(=O)N[C@@H](CCCNC(=N)N)C(=O)N[C@@H](CC1CCCCC1)C(N)=O)[C@@H](C)O) [Ac-[Glu23, D-Pro24, Nle25, Pya(4)26, Cha27,36, Aib28,31, Lys30]-PYY(23-36)]	6.9	7.5
Ac-T[dP]R[4Pal][Cha][Aib]NK[Aib]TRQR[Cha]-NH2 (SMILES CC(=O)N[C@H](C(=O)N1CCC[C@@H]1C(=O)N[C@@H](CCCNC(=N)N)C(=O)N[C@@H](Cc1ccncc1)C(=O)N[C@@H](CC1CCCCC1)C(=O)NC(C)(C)C(=O)N[C@@H](CC(N)=O)C(=O)N[C@@H](CCCCN)C(=O)NC(C)(C)C(=O)N[C@H](C(=O)N[C@@H](CCCNC(=N)N)C(=O)N[C@@H](CCC(N)=O)C(=O)N[C@@H](CCCNC(=N)N)C(=O)N[C@@H](CC1CCCCC1)C(N)=O)[C@@H](C)O)[C@@H](C)O) [Ac-[Thr23, D-Pro24, Pya(4)26, Cha27,36, Aib28,31, Lys30]-PYY(23-36)]	0.69	1.1
Isobutyryl-E[dP]R[4Pal][Cha][Aib]NK[Aib]TRQR[Cha]-NH2 (SMILES CC(C)C(=O)N[C@@H](CCC(=O)O)C(=O)N1CCC[C@@H]1C(=O)N[C@@H](CCCNC(=N)N)C(=O)N[C@@H](Cc1ccncc1)C(=O)N[C@@H](CC1CCCCC1)C(=O)NC(C)(C)C(=O)N[C@@H](CC(N)=O)C(=O)N[C@@H](CCCCN)C(=O)NC(C)(C)C(=O)N[C@H](C(=O)N[C@@H](CCCNC(=N)N)C(=O)N[C@@H](CCC(N)=O)C(=O)N[C@@H](CCCNC(=N)N)C(=O)N[C@@H](CC1CCCCC1)C(N)=O)[C@@H](C)O) [Isobutanoyl-[Glu23, D-Pro24, Pya(4)26, Cha27,36, Aib28,31, Lys30]-PYY(23-36)]	2	1.9
Ac-S[βAla]R[4Pal][Cha][Aib]NK[Aib]TRQR[Cha]-NH2 (SMILES CC(=O)N[C@@H](CO)C(=O)NCCC(=O)N[C@@H](CCCNC(=N)N)C(=O)N[C@@H](Cc1ccncc1)C(=O)N[C@@H](CC1CCCCC1)C(=O)NC(C)(C)C(=O)N[C@@H](CC(N)=O)C(=O)N[C@@H](CCCCN)C(=O)NC(C)(C)C(=O)N[C@H](C(=O)N[C@@H](CCCNC(=N)N)C(=O)N[C@@H](CCC(N)=O)C(=O)N[C@@H](CCCNC(=N)N)C(=O)N[C@@H](CC1CCCCC1)C(N)=O)[C@@H](C)O) [Ac-[βAla24, Pya(4)26, Cha27,36, Aib28,31, Lys30]-PYY(23-36)]	1.1	1.9
Ac-S[dP][Nle][4Pal][Cha][Aib]NK[Aib]TRQR[Cha]-NH2 (SMILES CCCC[C@H](NC(=O)[C@H]1CCCN1C(=O)[C@H](CO)NC(C)=O)C(=O)N[C@@H](Cc1ccncc1)C(=O)N[C@@H](CC1CCCCC1)C(=O)NC(C)(C)C(=O)N[C@@H](CC(N)=O)C(=O)N[C@@H](CCCCN)C(=O)NC(C)(C)C(=O)N[C@H](C(=O)N[C@@H](CCCNC(=N)N)C(=O)N[C@@H](CCC(N)=O)C(=O)N[C@@H](CCCNC(=N)N)C(=O)N[C@@H](CC1CCCCC1)C(N)=O)[C@@H](C)O) [Ac-[D-Pro24, Nle25, Pya(4)26, Cha27,36, Aib28,31, Lys30]-PYY(23-36)]	2.4	3
Ac-E[βAla]R[4Pal][Cha][Aib]NK[Aib]TRQR[Cha]-NH2 (SMILES CC(=O)N[C@@H](CCC(=O)O)C(=O)NCCC(=O)N[C@@H](CCCNC(=N)N)C(=O)N[C@@H](Cc1ccncc1)C(=O)N[C@@H](CC1CCCCC1)C(=O)NC(C)(C)C(=O)N[C@@H](CC(N)=O)C(=O)N[C@@H](CCCCN)C(=O)NC(C)(C)C(=O)N[C@H](C(=O)N[C@@H](CCCNC(=N)N)C(=O)N[C@@H](CCC(N)=O)C(=O)N[C@@H](CCCNC(=N)N)C(=O)N[C@@H](CC1CCCCC1)C(N)=O)[C@@H](C)O) [Ac-[Glu23, βAla24, Pya(4)26, Cha27,36, Aib28,31, Lys30]-PYY(23-36)]	3.9	7.4
Imidazole4carbonyl-E[dP]R[4Pal][Cha][Aib]NK[Aib]TRQR[Cha]-NH2 (SMILES C[C@@H](O)[C@H](NC(=O)C(C)(C)NC(=O)[C@H](CCCCN)NC(=O)[C@H](CC(N)=O)NC(=O)C(C)(C)NC(=O)[C@H](CC1CCCCC1)NC(=O)[C@H](Cc1ccncc1)NC(=O)[C@H](CCCNC(=N)N)NC(=O)[C@H]1CCCN1C(=O)[C@H](CCC(=O)O)NC(=O)c1cnc[nH]1)C(=O)N[C@@H](CCCNC(=N)N)C(=O)N[C@@H](CCC(N)=O)C(=O)N[C@@H](CCCNC(=N)N)C(=O)N[C@@H](CC1CCCCC1)C(N)=O) [4-Imidazolecarbonyl-[Glu23, D-Pro24, Pya(4)26, Cha27,36, Aib28,31, Lys30]-PYY(23-36)]	1.3	1.3

— US20120172293A1 (Takeda / Millennium, published 2012)
